Measurements from patent US20150258217A1, “Methods of Synthesizing and Using Peg-Like Fluorochromes” (THE GENERAL HOSPITAL CORPORATION, priority 2012, published 2015).

Key:
[1] = Quantum yield determination; type: physicochemical; conditions: for Quant. Yield: Table 5, in PBS
In short: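 Relative quantum yields in PBS, probe absorbance adjusted below 0.1, references IR-783 (0.043), fluorescein (0.18), Cy3 (0.31). Excitation/emission ranges: PN(783) 730 nm/765–870 nm; PN(545) 515 nm/538–700 nm; PN(497) 450 nm/475–620 nm, maximum emission used. Triplicate, mean±SD.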

[2] = PN pharmacokinetics, blood fluorescence fit to two-compartment model; type: in vivo, mouse; conditions: for Alpha half-life / Alpha rate / Beta half-life / Beta rate: nude mice, IV, 10 nmole, biexponential fit; for k elim half-life / k elim rate / k perm half-life / k perm rate / k vas return half-life / k vas return rate: two-compartment model micro constant
Experimental: Groups of 5 nude mice (female; 25-30 g; 6-8 weeks old; nu/nu) were injected (tail vein, IV) with 10 nmole of PN(783)4.3 or PN(783)10.0. 50 μl of blood was collected from tail tip at the indicated times. The blood was processed as above, and diluted (25 μl plasma, 700 μl of PBS). Fluorescence was measured with Cary Eclipse Fluorescence Spectrophotometer, excitation at 765 nm and emission from 790 to 880 nm. The fluorescence intensity at 806 nm was plotted over time, and the data was fit with two-phase decay curve. The fast and slow distribution half-life was given by the two-phase decay fit with Graphpad Prism software.
From the two-phase decay fit, a biexponential equation for blood concentration as a function of time, was obtained. By the relation of macro constants and micro constants, micro constants k's can be obtained, and the half-life was calculated by as described in Rosenbaum, S. E. Basic Pharmacokinetics and Pharmacodynamics: An Integrated Textbook and Computer Simulations, (John Wiley and Sons, Hoboken, N.J., 2011). The curve for interstitium concentration vs. time was fit with MATLAB based on the curve of blood concentration vs. time.
Serum fluorescence data from FIG. 24b and FIG. 24c was analyzed using the two-compartment model as described in Rosenbaum, S. E. Basic Pharmacokinetics and Pharmacodynamics: An Integrated Textbook and Computer Simulations, (John Wiley and Sons, Hoboken, N.J., 2011). Data were first fit to biexponential equation, yielding values of Alpha, Beta (apparent decay constants) and values of A and B as shown in equations 1 and 2 below.
By the relation of macro constants and micro constants, […]

[3] = Circulating form of PN's (FPLC of serum after IV injection); type: in vivo, mouse; conditions: nude mice, 20 nmoles
Experimental: 20 nmoles of PN(783)4.3, PN(783)6.1, or PN(783)10.0 was injected (IV, tail vein) into nude mice (female; 25-30 g; 6-8 weeks old; nu/nu). At the indicated time, 50 μl of blood was collected with microhematocrit capillary tube (Fisher Scientific) from the tail, and transferred to Eppendorf microcentrifuge tube with anticoagulant (EDTA) coating (Fisher Scientific). Tubes were centrifuged (5000 rpm for 5 minutes), and the supernatant was injected to the FPLC, a ÄKTA Purifier 10 with Superdex™ 200 10/300GL column.

[4] = PN and peptide size (volume, diameter) by FPLC gel filtration (Superdex 200, globular protein standards); type: physicochemical; conditions: for Volume FPLC (diameter) / Volume FPLC: Table 5; for Volume FPLC (diameter): converted from globular protein equivalent MW; for Volume FPLC: globular protein equivalent molecular weight
In short: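 Superdex 200 size exclusion in 0.05 M sodium phosphate, 0.15 M NaCl, 0.1% Tween, pH 7.2 at 0.8 ml/min, calibrated with globular protein standards via Kav. Apparent globular-equivalent molecular weight converted to diameter using radius (nm)=0.066M^1/3.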

Row | Substance | Quantum Yield ([1]; Table 3B, IR-783 dipeptides) | Quant. Yield [1] | Alpha half-life [2] [h] | Alpha rate [2] [h⁻¹] | Beta half-life [2] [h] | Beta rate [2] [h⁻¹] | k elim half-life [2] [h] | k elim rate [2] [h⁻¹] | k perm half-life [2] [h] | k perm rate [2] [h⁻¹] | k vas return half-life [2] [h] | k vas return rate [2] [h⁻¹] | circulating form after injection (FPLC elution vs pre-injection sample) [3] | PEG-based expansion of volume ([4]; 5 kDa PEG vs non-PEGylated peptide, (4.3/1.1)) [fold] | diameter ([4]; FPLC gel filtration) [nm] | Molecular Volume FPLC ([4]; Table 3B, dipeptides) [kDa] | Volume FPLC (diameter) [4] [nm] | Volume FPLC [4] [kDa]
1 | (DOTA)Lys(PEG5K)-Cys(IR-783) [PN(783)4.3] | 0.17 | 0.16 | 0.13 | 5.30 | 1.64 | 0.42 | 1.01 | 0.68 | 0.40 | 1.74 | 0.20 | 3.30 | identical for pre-injection samples and for sera from injected mice | 59 | 4.3 | 35.2 | 4.3 | 35.2
2 | (DOTA)Lys(PEG30K)-Cys(IR-783) [PN(783)10.0] | – | 0.16 | 0.51 | 1.36 | 7.0 | 0.099 | 4.2 | 0.24 | 1.02 | 0.67 | 1.23 | 0.56 | circulates at its pre-injection size | – | – | – | 10.0 | 435.4
